pKd: −log10 of the molar value.
Target: FcγRIIIa (UniProt P08637)
Test: SPR

Sequence of UniProt P08637 (P08637 17-254): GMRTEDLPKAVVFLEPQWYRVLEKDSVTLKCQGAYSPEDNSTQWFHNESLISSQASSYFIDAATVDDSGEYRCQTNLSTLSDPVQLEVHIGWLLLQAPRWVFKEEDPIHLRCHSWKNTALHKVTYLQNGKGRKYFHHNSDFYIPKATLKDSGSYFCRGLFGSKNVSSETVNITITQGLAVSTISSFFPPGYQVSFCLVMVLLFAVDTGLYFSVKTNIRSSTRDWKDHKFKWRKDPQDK

JSKN003 (bispecific antibody)
pKd: 6.82
